# Measurements reported in US20230212549A1 (3B PHARMACEUTICALS, published 2023).
# Several values for one entry are separate records, joined by “and”; a condition that tells them apart may be missing. Identical values can stand only once. Numbered stars: 1 amine (or outer) side, 2 acyl side, 3 side chain; on linkers, the order of the positions; unused ones are H or OH. Bridge positions count the residues as written; N and C are the ends. Square brackets hold non-standard residues; d marks the D form. * marks the point of attachment. DOTA = O=C(O)CN1CCN(CC(=O)O)CCN(CC(=O)*)CCN(CC(=O)O)CC1; Pro(trans-4-F) = O=C(O)[C@@H]1C[C@@H](F)CN1; Phe(4-Cl) = N[C@@H](Cc1ccc(Cl)cc1)C(=O)O; Phe(2-Cl) = N[C@@H](Cc1ccccc1Cl)C(=O)O; 2Nal = N[C@@H](Cc1ccc2ccccc2c1)C(=O)O; mXylylene = c1cc(C[*:1])cc(C[*:2])c1; NMeF = CN[C@@H](Cc1ccccc1)C(=O)O; 4Amb = NCc1ccc(C(=O)O)cc1; Hexanoyl = CCCCCC(=O)*; Phb = not defined here; Aib = CC(C)(N)C(=O)O; βAla = NCCC(=O)O; Sar = CNCC(=O)O
# B1: Hex-[Cys(3MeBn)-Pro-Pro-Thr-Glu-Phe-Cys]-Pamb-Arg-NH2 (peptide)
# peptide: Hexanoyl-CPPTEFC[4Amb]R-NH2
# modifications: linker 1-7 via mXylylene
# SMILES: CCCCCC(=O)N[C@H]1CSCc2cccc(c2)CSC[C@@H](C(=O)NCc2ccc(C(=O)N[C@@H](CCCNC(=N)N)C(N)=O)cc2)NC(=O)[C@H](Cc2ccccc2)NC(=O)[C@H](CCC(=O)O)NC(=O)[C@H]([C@@H](C)O)NC(=O)[C@@H]2CCCN2C(=O)[C@@H]2CCCN2C1=O
# notes: also called 3BP-3303
# B2: Ac-Met-[Cys(3MeBn)-Aib-Pro-Thr-Glu-Phe-Cys]-Asp-His-Phe-Arg-Asp-NH2 (peptide)
# peptide: Ac-MC[Aib]PTEFCDHFRD-NH2
# modifications: linker 2-8 via mXylylene
# SMILES: CSCC[C@H](NC(C)=O)C(=O)N[C@H]1CSCc2cccc(c2)CSC[C@@H](C(=O)N[C@@H](CC(=O)O)C(=O)N[C@@H](Cc2c[nH]cn2)C(=O)N[C@@H](Cc2ccccc2)C(=O)N[C@@H](CCCNC(=N)N)C(=O)N[C@@H](CC(=O)O)C(N)=O)NC(=O)[C@H](Cc2ccccc2)NC(=O)[C@H](CCC(=O)O)NC(=O)[C@H]([C@@H](C)O)NC(=O)[C@@H]2CCCN2C(=O)C(C)(C)NC1=O
# notes: also called 3BP-3204
# B3: DOTA-Bal-[Cys(3MeBn)-Pro-Pro-Thr-Glu-Phe-Cys]-Asp-His-Nmf-Arg-Asp-NH2 (peptide)
# peptide: {DOTA}-[βAla]CPPTEFCDH[NMeF]RD-NH2
# modifications: linker 2-8 via mXylylene
# SMILES: C[C@@H](O)[C@@H]1NC(=O)[C@@H]2CCCN2C(=O)[C@@H]2CCCN2C(=O)[C@@H](NC(=O)CCNC(=O)CN2CCN(CC(=O)O)CCN(CC(=O)O)CCN(CC(=O)O)CC2)CSCc2cccc(c2)CSC[C@@H](C(=O)N[C@@H](CC(=O)O)C(=O)N[C@@H](Cc2c[nH]cn2)C(=O)N(C)[C@@H](Cc2ccccc2)C(=O)N[C@@H](CCCNC(=N)N)C(=O)N[C@@H](CC(=O)O)C(N)=O)NC(=O)[C@H](Cc2ccccc2)NC(=O)[C@H](CCC(=O)O)NC1=O
# notes: also called 3BP-3264
# B4: Hex-[Cys(3MeBn)-Pro-Pro-Thr-Glu-Ocf-Cys]-NH2 (peptide)
# peptide: Hexanoyl-CPPTE[Phe(2-Cl)]C-NH2
# modifications: linker 1-7 via mXylylene
# SMILES: CCCCCC(=O)N[C@H]1CSCc2cccc(c2)CSC[C@@H](C(N)=O)NC(=O)[C@H](Cc2ccccc2Cl)NC(=O)[C@H](CCC(=O)O)NC(=O)[C@H]([C@@H](C)O)NC(=O)[C@@H]2CCCN2C(=O)[C@@H]2CCCN2C1=O
# notes: also called 3BP-3368
# B5: Hex-[Cys(3MeBn)-Pro-4Tfp-Thr-Glu-Phe-Cys]-NH2 (peptide)
# peptide: Hexanoyl-CP[Pro(trans-4-F)]TEFC-NH2
# modifications: linker 1-7 via mXylylene
# SMILES: CCCCCC(=O)N[C@H]1CSCc2cccc(c2)CSC[C@@H](C(N)=O)NC(=O)[C@H](Cc2ccccc2)NC(=O)[C@H](CCC(=O)O)NC(=O)[C@H]([C@@H](C)O)NC(=O)[C@@H]2C[C@@H](F)CN2C(=O)[C@@H]2CCCN2C1=O
# notes: also called 3BP-3352
# B6: Hex-[Cys(3MeBn)-Nmg-Pro-Thr-Glu-Phe-Cys]-NH2 (peptide)
# peptide: Hexanoyl-C[Sar]PTEFC-NH2
# modifications: linker 1-7 via mXylylene
# SMILES: CCCCCC(=O)N[C@H]1CSCc2cccc(c2)CSC[C@@H](C(N)=O)NC(=O)[C@H](Cc2ccccc2)NC(=O)[C@H](CCC(=O)O)NC(=O)[C@H]([C@@H](C)O)NC(=O)[C@@H]2CCCN2C(=O)CN(C)C1=O
# notes: also called 3BP-3347
# B7: Hex-[Cys(3MeBn)-Pro-Pro-Thr-Glu-2Ni-Cys]-NH2 (peptide)
# peptide: Hexanoyl-CPPTE[2Nal]C-NH2
# modifications: linker 1-7 via mXylylene
# SMILES: CCCCCC(=O)N[C@H]1CSCc2cccc(c2)CSC[C@@H](C(N)=O)NC(=O)[C@H](Cc2ccc3ccccc3c2)NC(=O)[C@H](CCC(=O)O)NC(=O)[C@H]([C@@H](C)O)NC(=O)[C@@H]2CCCN2C(=O)[C@@H]2CCCN2C1=O
# notes: also called 3BP-3362
# B8: Hex-[Cys(3MeBn)-Pro-Pro-Thr-Glu-Pcf-Cys]-NH2 (peptide)
# peptide: Hexanoyl-CPPTE[Phe(4-Cl)]C-NH2
# modifications: linker 1-7 via mXylylene
# SMILES: CCCCCC(=O)N[C@H]1CSCc2cccc(c2)CSC[C@@H](C(N)=O)NC(=O)[C@H](Cc2ccc(Cl)cc2)NC(=O)[C@H](CCC(=O)O)NC(=O)[C@H]([C@@H](C)O)NC(=O)[C@@H]2CCCN2C(=O)[C@@H]2CCCN2C1=O
# notes: also called 3BP-3369
# B9: Hex-[Cys(3MeBn)-Gly-Pro-Thr-Glu-Phe-Cys]-NH2 (peptide)
# peptide: Hexanoyl-CGPTEFC-NH2
# modifications: linker 1-7 via mXylylene
# SMILES: CCCCCC(=O)N[C@H]1CSCc2cccc(c2)CSC[C@@H](C(N)=O)NC(=O)[C@H](Cc2ccccc2)NC(=O)[C@H](CCC(=O)O)NC(=O)[C@H]([C@@H](C)O)NC(=O)[C@@H]2CCCN2C(=O)CNC1=O
# notes: also called 3BP-3345
# B10: Hex-[Cys(3MeBn)-Pro-Pro-Thr-Glu-Phe-Cys]-NH2 (peptide)
# peptide: Hexanoyl-CPPTEFC-NH2
# modifications: linker 1-7 via mXylylene
# SMILES: CCCCCC(=O)N[C@H]1CSCc2cccc(c2)CSC[C@@H](C(N)=O)NC(=O)[C@H](Cc2ccccc2)NC(=O)[C@H](CCC(=O)O)NC(=O)[C@H]([C@@H](C)O)NC(=O)[C@@H]2CCCN2C(=O)[C@@H]2CCCN2C1=O
# notes: also called 3BP-3287
# B11: Phb-[Cys(3MeBn)-Pro-Pro-Thr-Gln-Phe-Cys]-Asp-NH2 (peptide)
# peptide: Phb-CPPTQFCD-NH2
# modifications: linker 1-7 via mXylylene; reading uncertain; also: printed as Phb-[Cys(3MeBn)-Pro-Pro-Thr-Gln-Phe-Cys]-Asp-NH2
# notes: also called 3BP-3418
# B12: Ac-Met-[Cys(3MeBn)-Pro-Pro-Thr-Glu-Phe-Cys]-Asp-His-Phe-Ala-Asp-NH2 (peptide)
# peptide: Ac-MCPPTEFCDHFAD-NH2
# modifications: linker 2-8 via mXylylene
# SMILES: CSCC[C@H](NC(C)=O)C(=O)N[C@H]1CSCc2cccc(c2)CSC[C@@H](C(=O)N[C@@H](CC(=O)O)C(=O)N[C@@H](Cc2c[nH]cn2)C(=O)N[C@@H](Cc2ccccc2)C(=O)N[C@@H](C)C(=O)N[C@@H](CC(=O)O)C(N)=O)NC(=O)[C@H](Cc2ccccc2)NC(=O)[C@H](CCC(=O)O)NC(=O)[C@H]([C@@H](C)O)NC(=O)[C@@H]2CCCN2C(=O)[C@@H]2CCCN2C1=O
# notes: also called 3BP-3197
# B13: Ac-Met-[Cys(3MeBn)-ala-Pro-Thr-Glu-Phe-Cys]-Asp-His-Phe-Arg-Asp-NH2 (peptide)
# peptide: Ac-MC[dA]PTEFCDHFRD-NH2
# modifications: linker 2-8 via mXylylene
# SMILES: CSCC[C@H](NC(C)=O)C(=O)N[C@H]1CSCc2cccc(c2)CSC[C@@H](C(=O)N[C@@H](CC(=O)O)C(=O)N[C@@H](Cc2c[nH]cn2)C(=O)N[C@@H](Cc2ccccc2)C(=O)N[C@@H](CCCNC(=N)N)C(=O)N[C@@H](CC(=O)O)C(N)=O)NC(=O)[C@H](Cc2ccccc2)NC(=O)[C@H](CCC(=O)O)NC(=O)[C@H]([C@@H](C)O)NC(=O)[C@@H]2CCCN2C(=O)[C@@H](C)NC1=O
# notes: also called 3BP-3215
# Target: T1, fibroblast activation protein (FAP) on FAP-expressing human WI-38 fibroblasts (human, UniProt Q12884 1-760)
# T1 construct: also called human FAP
# Experiment: competitive FACS, WI-38 cells, vs Cy5 tracer m3; B = pIC50 7.1-8.0
row,Binder,pIC50 Category (FACS)
1,B1,7.1 pIC50 and 8 pIC50
2,B2,7.1 pIC50 and 8 pIC50
3,B3,7.1 pIC50 and 8 pIC50

# Target: Recombinant human FAP (R&D systems, #3715-SE) (human, UniProt Q12884 26-760)
# Experiment: cell-based or functional assay
row,Binder,pIC50 Category (Activity)
1,B1,> 8 pIC50
2,B4,7.1 pIC50 and 8 pIC50
3,B5,7.1 pIC50 and 8 pIC50
4,B6,7.1 pIC50 and 8 pIC50
5,B7,6.1 pIC50 and 7 pIC50
6,B2,7.1 pIC50 and 8 pIC50
7,B8,6.1 pIC50 and 7 pIC50
8,B9,7.1 pIC50 and 8 pIC50
9,B10,7.1 pIC50 and 8 pIC50
10,B11,6.1 pIC50 and 7 pIC50
11,B12,6.1 pIC50 and 7 pIC50
12,B13,6.1 pIC50 and 7 pIC50
13,B3,7.1 pIC50 and 8 pIC50

# Target: T1, fibroblast activation protein (FAP) on …
# Experiment: competitive FACS, WI-38 cells, vs Cy5 tracer m3; C = pIC50 6.1-7.0
row,Binder,pIC50 Category (FACS)
1,B4,6.1 pIC50 and 7 pIC50
2,B5,6.1 pIC50 and 7 pIC50
3,B6,6.1 pIC50 and 7 pIC50
4,B7,6.1 pIC50 and 7 pIC50
5,B8,6.1 pIC50 and 7 pIC50
6,B9,6.1 pIC50 and 7 pIC50
7,B10,6.1 pIC50 and 7 pIC50
8,B11,6.1 pIC50 and 7 pIC50
9,B12,6.1 pIC50 and 7 pIC50
10,B13,6.1 pIC50 and 7 pIC50
